Assay results as given in publication PMC6795808, “N6-methyladenosine modification of circNSUN2 facilitates cytoplasmic export and stabilizes HMGA2 to promote colorectal liver metastasis”.

How the values were obtained:
[1] = biological target: YTHDC1 WT (UniProt Q96MU7 1-727); experiment: EMSA; LightShift Chemiluminescent RNA EMSA kit binding buffer (composition not stated), 30 min, room temperature; 6% native PAGE, 0.5x TBE; supershift preincubation with antibody 20 min at 0 C; conditions: protein: recombinant; tags: FLAG; label: 3'-biotin
[2] = biological target: IGF2BP2 WT (UniProt Q9Y6M1 1-599); experiment: EMSA; dose-dependent; confirmed by supershift; LightShift Chemiluminescent RNA EMSA kit binding buffer (composition not stated), 30 min, room temperature; 6% native PAGE, 0.5x TBE; supershift preincubation with antibody 20 min at 0 C; conditions: protein: recombinant; tags: FLAG; label: 3'-biotin
IGF2BP2 WT, sequence (Q9Y6M1 whole entry): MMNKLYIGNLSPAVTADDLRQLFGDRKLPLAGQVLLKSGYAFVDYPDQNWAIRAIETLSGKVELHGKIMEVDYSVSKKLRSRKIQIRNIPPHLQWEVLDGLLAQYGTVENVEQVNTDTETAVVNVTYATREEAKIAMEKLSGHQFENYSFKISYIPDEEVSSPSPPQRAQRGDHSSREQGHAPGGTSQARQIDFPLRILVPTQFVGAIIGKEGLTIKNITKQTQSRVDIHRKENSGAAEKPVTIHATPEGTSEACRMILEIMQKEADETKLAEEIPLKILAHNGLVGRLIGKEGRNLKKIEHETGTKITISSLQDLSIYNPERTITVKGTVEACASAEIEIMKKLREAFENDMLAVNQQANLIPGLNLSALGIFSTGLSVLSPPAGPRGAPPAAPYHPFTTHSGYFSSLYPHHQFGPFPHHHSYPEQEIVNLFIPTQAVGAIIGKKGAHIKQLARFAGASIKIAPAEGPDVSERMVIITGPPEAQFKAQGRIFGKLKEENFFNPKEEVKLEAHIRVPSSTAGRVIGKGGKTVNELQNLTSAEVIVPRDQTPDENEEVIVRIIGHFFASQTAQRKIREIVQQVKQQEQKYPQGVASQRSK

Binder | binding result [1] | binding result [2]
AUAAGGUAUCCUGAAGAACU (ssRNA, m6A not marked in the printed sequence; whether A18 is methylated in the probe is unclear) [circNSUN2-m6A wild type] | binds | 
CCUCAUCAUAAGGUAUCCUG (ssRNA) [circNSUN2 wild type (IGF2BP2 probe)] |  | binds
